Tests used:
Assay in all cases: holdup assay
Parameters in all cases: key: below the threshold = too weak to quantify, mostly under pKd 3.1 to 4
[1] = molecular target: T1, LIN7A, O14910
T1 sequence (O14910 103-200, limits assumed, looked up): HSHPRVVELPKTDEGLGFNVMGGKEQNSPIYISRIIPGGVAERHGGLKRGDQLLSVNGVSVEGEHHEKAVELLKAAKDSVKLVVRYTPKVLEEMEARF

[2] = molecular target: PDLIM1, O00151
[3] = molecular target: FRMPD2_2, Q68DX3
[4] = molecular target: MAST1, Q9Y2H9
[5] = molecular target: T2, RADIL, Q96JH8
T2 sequence (Q96JH8 971-1071, limits assumed, looked up): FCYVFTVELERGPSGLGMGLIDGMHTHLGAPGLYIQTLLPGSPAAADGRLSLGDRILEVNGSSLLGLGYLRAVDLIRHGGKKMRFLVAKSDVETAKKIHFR

[6] = molecular target: TJP1_2, Q07157
[7] = molecular target: T3, SIPA1L2, Q9P2F8
T3 sequence (Q9P2F8 945-1036, limits assumed, looked up): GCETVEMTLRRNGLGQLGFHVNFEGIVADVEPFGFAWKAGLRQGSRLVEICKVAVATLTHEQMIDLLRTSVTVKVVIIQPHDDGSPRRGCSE

[8] = molecular target: NHERF4_4, Q86UT5
[9] = molecular target: T4, MPP2, Q14168
T4 sequence (Q14168 180-250, limits assumed, looked up): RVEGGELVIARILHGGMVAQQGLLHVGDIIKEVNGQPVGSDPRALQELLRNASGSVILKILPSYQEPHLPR

[10] = molecular target: MAGI1_1, Q96QZ7
[11] = molecular target: DLG4_1, P78352
[12] = molecular target: T5, LRRC7, Q96NW7
T5 sequence (Q96NW7 1440-1537, limits assumed, looked up): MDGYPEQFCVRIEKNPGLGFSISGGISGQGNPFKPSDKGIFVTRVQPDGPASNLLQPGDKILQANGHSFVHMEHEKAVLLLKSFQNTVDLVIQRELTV

[13] = molecular target: T6, GRIP1_2, Q9Y3R0
T6 sequence (Q9Y3R0 145-248, limits assumed, looked up): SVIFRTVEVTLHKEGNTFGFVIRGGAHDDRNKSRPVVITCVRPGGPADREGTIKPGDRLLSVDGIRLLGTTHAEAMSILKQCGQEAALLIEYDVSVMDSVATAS

[14] = molecular target: T7, DLG3_1, Q92796
T7 sequence (Q92796 125-227, limits assumed, looked up): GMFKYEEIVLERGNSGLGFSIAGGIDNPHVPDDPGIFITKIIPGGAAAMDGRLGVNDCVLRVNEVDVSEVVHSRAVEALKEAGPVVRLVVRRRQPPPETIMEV

[15] = molecular target: T8, DLG3_2, Q92796
T8 sequence (Q92796 221-321, limits assumed, looked up): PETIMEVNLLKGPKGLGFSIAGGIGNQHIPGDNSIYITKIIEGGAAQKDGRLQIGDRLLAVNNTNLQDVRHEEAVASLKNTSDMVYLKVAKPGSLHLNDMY

[16] = molecular target: T9, MPDZ_10, O75970
T9 sequence (O75970 1624-1722, limits assumed, looked up): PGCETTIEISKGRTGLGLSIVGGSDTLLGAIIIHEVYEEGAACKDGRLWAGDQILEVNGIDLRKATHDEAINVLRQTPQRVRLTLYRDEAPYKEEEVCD

[17] = molecular target: MAGI3_2, Q5TCQ9
[18] = molecular target: Inadl_5, Q8NI35
[19] = molecular target: MAGI2_6, Q86UL8
[20] = molecular target: T10, GRIP1_7, Q9Y3R0
T10 sequence (Q9Y3R0 999-1096, limits assumed, looked up): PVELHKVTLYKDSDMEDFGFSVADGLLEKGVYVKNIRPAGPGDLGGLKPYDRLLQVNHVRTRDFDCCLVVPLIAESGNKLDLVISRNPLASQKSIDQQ

[21] = molecular target: MAGI1_2, Q96QZ7
[22] = molecular target: FRMPD2_3, Q68DX3
[23] = molecular target: TJP2_1, Q9UDY2
[24] = molecular target: LNX1_3, Q8TBB1
[25] = molecular target: Inadl_4, Q8NI35
[26] = molecular target: SCRIB_3, Q14160
[27] = molecular target: MAGI2_4, Q86UL8
[28] = plain residues with an end cap or a label only (N-terminal biotin on a linker: ttds)
[29] = plain residues with an end cap or a label only (N-terminal biotin on a linker: ahx)

LNX1_3, Q8TBB1, sequence (Q8TBB1 500-596): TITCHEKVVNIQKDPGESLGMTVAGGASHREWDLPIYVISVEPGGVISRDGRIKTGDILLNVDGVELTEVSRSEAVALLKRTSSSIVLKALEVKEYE
NHERF4_4, Q86UT5, sequence (Q86UT5 464-550): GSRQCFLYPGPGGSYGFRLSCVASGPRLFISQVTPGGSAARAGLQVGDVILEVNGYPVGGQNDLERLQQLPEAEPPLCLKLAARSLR
SCRIB_3, Q14160, sequence (Q14160 999-1103): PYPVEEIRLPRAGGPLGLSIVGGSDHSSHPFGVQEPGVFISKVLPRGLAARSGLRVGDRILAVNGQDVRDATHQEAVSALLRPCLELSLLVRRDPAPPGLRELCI
TJP1_2, Q07157, sequence (Q07157 181-274): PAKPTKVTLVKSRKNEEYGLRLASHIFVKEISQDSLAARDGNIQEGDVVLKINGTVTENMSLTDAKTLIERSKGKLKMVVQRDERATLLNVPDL
MAGI2_6, Q86UL8, sequence (Q86UL8 1141-1229): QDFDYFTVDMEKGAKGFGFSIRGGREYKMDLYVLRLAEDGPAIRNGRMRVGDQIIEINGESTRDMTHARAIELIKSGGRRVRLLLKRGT
PDLIM1, O00151, sequence (O00151 1-87): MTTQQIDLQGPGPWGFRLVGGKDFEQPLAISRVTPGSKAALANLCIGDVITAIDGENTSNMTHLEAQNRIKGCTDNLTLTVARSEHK
MAGI1_2, Q96QZ7, sequence (Q96QZ7 456-580): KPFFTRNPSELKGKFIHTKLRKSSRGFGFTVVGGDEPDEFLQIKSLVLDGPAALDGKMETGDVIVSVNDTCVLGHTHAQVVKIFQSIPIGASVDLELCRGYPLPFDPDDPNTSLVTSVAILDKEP
TJP2_1, Q9UDY2, sequence (Q9UDY2 24-128): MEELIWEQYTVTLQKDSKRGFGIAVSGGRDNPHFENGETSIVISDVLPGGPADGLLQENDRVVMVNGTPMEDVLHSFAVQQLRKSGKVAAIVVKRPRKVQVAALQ
MAST1, Q9Y2H9, sequence (Q9Y2H9 962-1065): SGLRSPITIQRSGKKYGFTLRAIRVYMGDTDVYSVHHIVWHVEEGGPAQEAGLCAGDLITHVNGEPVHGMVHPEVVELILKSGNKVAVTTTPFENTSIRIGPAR
FRMPD2_2, Q68DX3, sequence (Q68DX3 944-1038): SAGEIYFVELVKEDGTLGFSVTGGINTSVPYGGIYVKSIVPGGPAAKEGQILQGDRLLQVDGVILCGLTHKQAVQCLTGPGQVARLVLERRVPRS
MAGI3_2, Q5TCQ9, sequence (Q5TCQ9 398-503): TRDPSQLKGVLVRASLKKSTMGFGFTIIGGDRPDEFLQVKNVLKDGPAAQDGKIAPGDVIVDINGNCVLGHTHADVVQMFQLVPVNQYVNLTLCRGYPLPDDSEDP
MAGI2_4, Q86UL8, sequence (Q86UL8 772-865): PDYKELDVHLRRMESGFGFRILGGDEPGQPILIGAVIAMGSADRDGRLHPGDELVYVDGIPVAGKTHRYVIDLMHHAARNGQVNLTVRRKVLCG
MAGI1_1, Q96QZ7, sequence (Q96QZ7 1-106): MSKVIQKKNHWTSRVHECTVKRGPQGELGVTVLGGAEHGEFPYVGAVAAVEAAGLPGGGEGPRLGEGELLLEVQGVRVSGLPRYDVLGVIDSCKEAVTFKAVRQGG
DLG4_1, P78352, sequence (P78352 62-152): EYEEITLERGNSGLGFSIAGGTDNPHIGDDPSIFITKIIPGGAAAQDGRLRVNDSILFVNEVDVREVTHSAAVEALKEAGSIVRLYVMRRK
FRMPD2_3, Q68DX3, sequence (Q68DX3 1073-1166): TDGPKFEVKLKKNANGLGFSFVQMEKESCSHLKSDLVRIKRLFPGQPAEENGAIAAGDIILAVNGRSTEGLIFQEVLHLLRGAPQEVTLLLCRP
Inadl_4, Q8NI35, sequence (Q8NI35 547-651): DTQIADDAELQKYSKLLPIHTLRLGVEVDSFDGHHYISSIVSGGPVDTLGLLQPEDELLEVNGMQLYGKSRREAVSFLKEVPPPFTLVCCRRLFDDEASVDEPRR
Inadl_5, Q8NI35, sequence (Q8NI35 673-780): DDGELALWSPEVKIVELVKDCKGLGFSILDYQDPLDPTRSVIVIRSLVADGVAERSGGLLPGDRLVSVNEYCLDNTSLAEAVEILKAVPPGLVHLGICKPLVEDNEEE

B1: ARHGAP6, O43182 (peptide)
chain: NPDALPETLV
**Q.** With B1 as the binder, how does the pKd [1, 28] read?
**A.** 3.61

**Q.** And the pKd [2, 28]?
**A.** below the threshold

**Q.** What about the pKd [3, 28] of the same binder?
**A.** 4.99

**Q.** And the pKd [4, 28]?
**A.** 4.38

**Q.** What about the pKd [5, 28] of the same binder?
**A.** 4.08

**Q.** What about the pKd [6, 28] of the same binder?
**A.** below the threshold

**Q.** And the pKd [7, 28]?
**A.** below the threshold

**Q.** What about the pKd [8, 28] of the same binder?
**A.** below the threshold

**Q.** What about the pKd [9, 28] of the same binder?
**A.** below the threshold

**Q.** And the pKd [10, 28]?
**A.** below the threshold

**Q.** What about the pKd [11, 28] of the same binder?
**A.** 4.13

**Q.** And the pKd [12, 28]?
**A.** below the threshold

**Q.** What about the pKd [13, 28] of the same binder?
**A.** below the threshold

**Q.** And the pKd [14, 28]?
**A.** below the threshold

**Q.** And the pKd [15, 28]?
**A.** 4.18

**Q.** What about the pKd [16, 28] of the same binder?
**A.** below the threshold

**Q.** What about the pKd [17, 28] of the same binder?
**A.** 4.6

**Q.** And the pKd [18, 28]?
**A.** below the threshold

**Q.** What about the pKd [19, 28] of the same binder?
**A.** 4.31

**Q.** And the pKd [20, 28]?
**A.** 3.61

**Q.** And the pKd [21, 28]?
**A.** below the threshold

**Q.** And the pKd [22, 28]?
**A.** below the threshold

**Q.** And the pKd [23, 28]?
**A.** below the threshold

**Q.** And the pKd [24, 28]?
**A.** below the threshold

**Q.** What about the pKd [25, 28] of the same binder?
**A.** below the threshold

**Q.** And the pKd [26, 28]?
**A.** 3.99

**Q.** What about the pKd [27, 28] of the same binder?
**A.** 4.42

B2: ARVCF, O00192 (peptide)
chain: AKPQPVDSWV
**Q.** Which results are given for B2?
**A.** pKd [1, 29]: below the threshold; pKd [2, 29]: 3.55; pKd [3, 29]: 4.25; pKd [4, 29]: below the threshold; pKd [5, 29]: 4.46; pKd [6, 29]: below the threshold; pKd [7, 29]: below the threshold; pKd [8, 29]: below the threshold; pKd [9, 29]: below the threshold; pKd [10, 29]: below the threshold; pKd [11, 29]: 4.2; pKd [12, 29]: 4.94; pKd [13, 29]: below the threshold; pKd [14, 29]: 4.09; pKd [15, 29]: 4.49; pKd [16, 29]: below the threshold; pKd [17, 29]: 3.68; pKd [18, 29]: below the threshold; pKd [19, 29]: 5.48; pKd [20, 29]: below the threshold; pKd [21, 29]: below the threshold; pKd [22, 29]: below the threshold; pKd [23, 29]: 4.77; pKd [24, 29]: below the threshold; pKd [25, 29]: below the threshold; pKd [26, 29]: 3.95; pKd [27, 29]: 4.12

Reference: PMC9482650, “Quantitative fragmentomics allow affinity mapping of interactomes” (Nature Communications, 2022)
